This passage reports % Inhibition, PlGF-1 Measured and RLU results from US20100015637A1 (AbbVie / Abbott, published 2010).

Assay [1] addresses human PlGF-1 comprising amino acids 1-137 produced in human embryonic kidney cells (human) (UniProt P49763). Nature of the assay: Format 2 …, capture MAb264, detection Pb264; sFlt-1 1227 pmol/L (ratio 40).
The target is the same in assay [2]. The assay is described as follows: Format 2 …, capture MAb264, detection Pb264; sFlt-1 1533 pmol/L (ratio 50).
For assay [3] the target is unchanged. Nature of the assay: Format 2 …, capture MAb264, detection Pb264; sFlt-1 2300 pmol/L (ratio 75).
The target is the same in assay [4]. Nature of the assay: Format 1 …, capture 2-826-335, detection 1-255-713; sFlt-1 153 pmol/L (ratio 5).
The target is the same in assay [5]. The assay is described as follows: Format 1 …, capture 2-826-335, detection 1-255-713; sFlt-1 1533 pmol/L (ratio 50).
Assay [6] has the same target. Nature of the assay: Format 1 …, capture 2-826-335, detection 1-255-713; sFlt-1 4600 pmol/L (ratio 150).
For assay [7], the target named is recombinant human PlGF-1 (comprising amino acids 1-131) expressed in E. coli (R&D Systems) (human) (UniProt P49763). The assay is described as follows: … sandwich, capture MAb255, detection pAb264; antigen 60 pg/mL.
The target is the same in assay [8]. The assay is described as follows: … sandwich, capture MAb255, detection MAb826; antigen 15 pg/mL.
For assay [9] the target is unchanged. Nature of the assay: … sandwich, capture MAb255, detection MAb826; antigen 250 pg/mL.
The target is the same in assay [10]. Nature of the assay: … sandwich, capture MAb255, detection MAb826; antigen 750 pg/mL.
Assay [11] has the same target. The assay is described as follows: … sandwich, capture MAb255, detection pAb264; antigen 1500 pg/mL.
Assay [12] shares this target. Nature of the assay: … sandwich, capture MAb255, detection MAb826; antigen 0 pg/mL (blank).
Assay [13] has the same target. The assay is described as follows: … sandwich, capture MAb826, detection pAb264; antigen 1500 pg/mL.
Assay [14] addresses T1, CHO human PlGF-1 fragment (comprising amino acids 17-131; ATCC PTA-8540) (human, UniProt P49763 35-221).
T1 sequence: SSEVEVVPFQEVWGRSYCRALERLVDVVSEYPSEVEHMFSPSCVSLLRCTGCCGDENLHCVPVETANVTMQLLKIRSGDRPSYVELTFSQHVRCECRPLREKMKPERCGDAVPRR
The assay is described as follows: … sandwich, capture MAb826, detection pAb264; antigen 60 pg/mL.

Assay [15] has as its target T2, CHO human PlGF-1 comprising amino acids 1-137 (human PlGF-1-His (1-131), CHO 6305) (human, UniProt P49763 19-221, N-glycans at N21 (completely glycosylated) and N89 (partially glycosylated)).
T2 construct: Mature human PlGF-1 with 6xHis tag (137 amino acids); also called CHO (1-137)
T2 sequence: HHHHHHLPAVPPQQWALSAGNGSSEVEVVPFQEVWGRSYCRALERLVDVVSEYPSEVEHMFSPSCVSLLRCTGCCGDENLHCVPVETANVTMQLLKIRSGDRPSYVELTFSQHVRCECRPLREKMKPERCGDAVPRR
Described as above.

For assay [16], the target named is T3, human PlGF-1 comprising amino acids 1-137 produced in human embryonic kidney cells (human, UniProt P49763 19-221).
T3 construct: Mature human PlGF-1 with 6xHis tag; also called HEK (1-137); full length HEK human PlGF-1 (1-137)
T3 sequence: T2 sequence
The description is as above.

In assay [17] the target is T4, human PlGF-1 fragment (comprising amino acids 17-131) produced in human embryonic kidney cells (human, UniProt P49763 35-221).
T4 sequence: T1 sequence
Described as above.

Assay [18] has as its target T1, CHO human PlGF-1 fragment (comprising …). The assay is described as follows: … sandwich, capture MAb826, detection pAb264; antigen 750 pg/mL.
Assay [19] deals with T2, CHO human PlGF-1 comprising amino acids …. Described as above.
The target in assay [20] is T3, human PlGF-1 comprising amino acids …. The description is as above.
For assay [21], the target named is T4, human PlGF-1 fragment (comprising amino …). The assay is described as above.

In the case of “native sFlt-1, isolated from human placental tissue (from UniProt P17948 27-687) (receptor)”, the % Inhibition in assay [1] turned out to be 92.9%; in assay [2], 93.6%; in assay [3], 95%; in [4] it was 64.1%; in assay [5], 92.5%; in [6], 95%. Also, the PlGF-1 Measured in assay [1] was determined as 55.5 pg/mL; in assay [2], 50.4 pg/mL; in assay [3] it was 39.7 pg/mL; in assay [4] it was 367 pg/mL; in assay [5], 76.6 pg/mL; in assay [6], 51.3 pg/mL.

B1: monoclonal antibody 1-255-713 (produced by murine hybridoma cell line 1-255-713, ATCC PTA-8536) (antibody, mouse IgG2a, V domains shown)
VH: QVHLQQSGAELMKPGASVKISCKATGYTFSSYWIEWVKQRPGHGLEWIGEILPGSVSNNFNEKFKDKATLTADPSSNTAYIQVSSLTSEDSAVYYCARSTGFYYGGNYFDHWGQGTTLAVSS
VL: DVVMTQTPLSLPVSPGDQASISCRSSQSLVHSNGHTYLHWYLQKPGQSPKLLIYKVSNRFSGVPDRVSGSGSGTDFTLKISRVEAEDLGVYFCSQSTHVPPTFGGGTKLEIKR
notes: also called MAb255
Consider B1, for which the RLU in assay [7] came to 161000 RLU; in [8], 22700 RLU; in assay [9], 298000 RLU; in assay [10], 780000 RLU; in assay [11], 2.19e+06 RLU; in [12], 6110 RLU.

B2: monoclonal antibody 2-826-335 (produced by murine hybridoma cell line 2-826-335, ATCC PTA-8539) (antibody, mouse IgG1, V domains shown)
VH: QVQLKQSGPGLVQPSQSLSITCTVSGFSLTTYGIHWVRQSPGKGLEWLGVMWSGGDTDYDAAFISRLSISKDNSKSQVFFKMNSLQANDTGIYYCARYRFYGMDYWGQGTSVTVSS
VL: AIQMTQSSSSFSVSLGDRVTITCKASEDIYNRFAWYQQKPGNAPRLLISGAASLEAGVPSRFSGSGSGQDYTLSITSLQTEDVATYYCQQYWSTPWTFGGGTKLEIKR
notes: also called MAb826
As to B2, the RLU in assay [13] worked out at 1.08e+06 RLU; in assay [14], 28200 RLU; in assay [15] it was 22200 RLU; in assay [16], 47700 RLU; in [17], 36900 RLU; in assay [18], 239000 RLU. The RLU in assay [19] amounted to 180000 RLU; in assay [20], 423000 RLU; in assay [21] it was 336000 RLU.

Usually % Inhibition stands for the relative decrease from the control value, in per cent.
